Measurements published in PMC4309839, “Functional classification and biochemical characterization of a novel rho class glutathione S-transferase in Synechocystis PCC 6803” (FEBS Open Bio, 2014).

Test system: O=C(O)C(Cl)Cl
Assay: purified protein
Type: biochemical, Synechocystis sp. PCC 6803
Details: 1 mM GSH, 0.05-1 mM DCA, 100 mM phosphate pH 7.4, 37 °C

For “sll1545 (Synechocystis sp. PCC 6803 substr. Kazusa)”, which Km is on record?
The Km was 140 ± 20 µM.

What about the Vmax of the same substance?
Its Vmax is 11.8 µmol/min.

What about the kcat of the same substance?
The kcat was 82.17 ± 0.23 s⁻¹.

And the kcat/Km?
Its kcat/Km is 574600 ± 990 M⁻¹ s⁻¹.
